# What was measured:
# [1] = target: gp70 env protein of amphotropic MLV (4070A envelope), on purified viral particles (amphotropic murine leukemia virus (4070A envelope)); assay: ELISA on plate-bound MLV, dilution factor 781250, Exp125-Ana Plate 2
# [2] = target: gp70 env protein of amphotropic MLV (4070A envelope), on purified viral particles (amphotropic murine leukemia virus (4070A envelope)); assay: ELISA on plate-bound MLV, dilution factor 50, Exp072-DTV Plate 1
# [3] = target: gp70 env protein of amphotropic MLV (4070A envelope), on purified viral particles (amphotropic murine leukemia virus (4070A envelope)); assay: ELISA on plate-bound MLV, dilution factor 6250, Exp073-DTV Plate 1
# [4] = target: gp70 env protein of amphotropic MLV (4070A envelope), on purified viral particles (amphotropic murine leukemia virus (4070A envelope)); assay: ELISA on plate-bound MLV, dilution factor 156250, Exp073-DTV Plate 2
# [5] = target: gp70 env protein of amphotropic MLV (4070A envelope), on purified viral particles (amphotropic murine leukemia virus (4070A envelope)); assay: ELISA on plate-bound MLV, dilution factor 31250, Exp121-Ana Plate 2
# [6] = target: gp70 env protein of amphotropic MLV (4070A envelope), on purified viral particles (amphotropic murine leukemia virus (4070A envelope)); assay: ELISA on plate-bound MLV, dilution factor 6250, Exp122-Ana Plate 1
# [7] = target: gp70 env protein of amphotropic MLV (4070A envelope), on purified viral particles (amphotropic murine leukemia virus (4070A envelope)); assay: ELISA on plate-bound MLV, dilution factor 50, Exp125-Ana Plate 2
# [8] = target: gp70 env protein of amphotropic MLV (4070A envelope), on purified viral particles (amphotropic murine leukemia virus (4070A envelope)); assay: ELISA on plate-bound MLV, dilution factor 10, Exp121-Ana Plate 2
# [9] = target: gp70 env protein of amphotropic MLV (4070A envelope), on purified viral particles (amphotropic murine leukemia virus (4070A envelope)); assay: ELISA on plate-bound MLV, dilution factor 1250, Exp122-Ana Plate 1
# [10] = target: gp70 env protein of amphotropic MLV (4070A envelope), on purified viral particles (amphotropic murine leukemia virus (4070A envelope)); assay: ELISA on plate-bound MLV, dilution factor 6250, Exp074-DTV Plate 2
# [11] = target: gp70 env protein of amphotropic MLV (4070A envelope), on purified viral particles (amphotropic murine leukemia virus (4070A envelope)); assay: ELISA on plate-bound MLV, dilution factor 781250, inter-assay mean of six experiments
# [12] = target: gp70 env protein of amphotropic MLV (4070A envelope), on purified viral particles (amphotropic murine leukemia virus (4070A envelope)); assay: ELISA on plate-bound MLV, dilution factor 31250, Exp125-Ana Plate 1
# [13] = target: gp70 env protein of amphotropic MLV (4070A envelope), on purified viral particles (amphotropic murine leukemia virus (4070A envelope)); assay: ELISA on plate-bound MLV, dilution factor 10, Exp074-DTV Plate 1
# [14] = target: gp70 env protein of amphotropic MLV (4070A envelope), on purified viral particles (amphotropic murine leukemia virus (4070A envelope)); assay: ELISA on plate-bound MLV, dilution factor 1250, Exp121-Ana Plate 2
# [15] = target: gp70 env protein of amphotropic MLV (4070A envelope), on purified viral particles (amphotropic murine leukemia virus (4070A envelope)); assay: ELISA on plate-bound MLV, dilution factor 10, Exp072-DTV Plate 2
# [16] = target: gp70 env protein of amphotropic MLV (4070A envelope), on purified viral particles (amphotropic murine leukemia virus (4070A envelope)); assay: ELISA on plate-bound MLV, dilution factor 50, Exp072-DTV Plate 2
# [17] = target: gp70 env protein of amphotropic MLV (4070A envelope), on purified viral particles (amphotropic murine leukemia virus (4070A envelope)); assay: ELISA on plate-bound MLV, dilution factor 156250, Exp125-Ana Plate 2
# [18] = target: gp70 env protein of amphotropic MLV (4070A envelope), on purified viral particles (amphotropic murine leukemia virus (4070A envelope)); assay: ELISA on plate-bound MLV, dilution factor 781250, Exp122-Ana Plate 2
# [19] = target: gp70 env protein of amphotropic MLV (4070A envelope), on purified viral particles (amphotropic murine leukemia virus (4070A envelope)); assay: ELISA on plate-bound MLV, dilution factor 250, Exp121-Ana Plate 1
# [20] = target: gp70 env protein of amphotropic MLV (4070A envelope), on purified viral particles (amphotropic murine leukemia virus (4070A envelope)); assay: ELISA on plate-bound MLV, dilution factor 156250, Exp074-DTV Plate 1
# [21] = target: gp70 env protein of amphotropic MLV (4070A envelope), on purified viral particles (amphotropic murine leukemia virus (4070A envelope)); assay: ELISA on plate-bound MLV, dilution factor 781250, Exp074-DTV Plate 1
# [22] = target: gp70 env protein of amphotropic MLV (4070A envelope), on purified viral particles (amphotropic murine leukemia virus (4070A envelope)); assay: ELISA on plate-bound MLV, dilution factor 1250, Exp072-DTV Plate 2
# [23] = target: gp70 env protein of amphotropic MLV (4070A envelope), on purified viral particles (amphotropic murine leukemia virus (4070A envelope)); assay: ELISA on plate-bound MLV, dilution factor 50, Exp073-DTV Plate 1
# [24] = target: gp70 env protein of amphotropic MLV (4070A envelope), on purified viral particles (amphotropic murine leukemia virus (4070A envelope)); assay: ELISA on plate-bound MLV, dilution factor 1250, Exp125-Ana Plate 2
# [25] = target: gp70 env protein of amphotropic MLV (4070A envelope), on purified viral particles (amphotropic murine leukemia virus (4070A envelope)); assay: ELISA on plate-bound MLV, dilution factor 6250, Exp072-DTV Plate 1
# [26] = target: gp70 env protein of amphotropic MLV (4070A envelope), on purified viral particles (amphotropic murine leukemia virus (4070A envelope)); assay: ELISA on plate-bound MLV, dilution factor 6250, Exp073-DTV Plate 2
# Chain of gp70 env protein of amphotropic MLV (4070A envelope), on purified viral particles (amphotropic murine leukemia virus (4070A envelope)) (P21995 whole entry): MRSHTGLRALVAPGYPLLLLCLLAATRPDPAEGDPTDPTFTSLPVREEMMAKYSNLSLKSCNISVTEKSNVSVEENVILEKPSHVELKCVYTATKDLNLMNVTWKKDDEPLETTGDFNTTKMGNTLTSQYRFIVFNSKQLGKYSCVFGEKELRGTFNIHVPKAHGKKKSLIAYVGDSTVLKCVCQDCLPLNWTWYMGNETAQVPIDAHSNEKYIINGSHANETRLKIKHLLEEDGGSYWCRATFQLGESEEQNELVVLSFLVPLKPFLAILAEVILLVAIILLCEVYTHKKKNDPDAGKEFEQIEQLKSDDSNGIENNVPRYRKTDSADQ
substance,measurement,setting,value
"83A25 monoclonal antibody (rat IgG2a, anti-gp70)",Mean OD,[1],0.105 OD
same,Mean OD,[2],1.75 OD
same,Mean OD,[3],0.803 OD
same,Mean OD,[4],0.139 OD
same,Mean OD,[5],0.276 OD
same,Mean OD,[6],0.64 OD
same,Mean OD,[7],1.96 OD
same,Mean OD,[8],2.65 OD
same,Mean OD,[9],1.48 OD
same,Mean OD,[10],0.699 OD
same,Mean OD (inter-assay mean),[11],0.118 OD
same,Mean OD,[12],0.235 OD
same,Mean OD,[13],2.25 OD
same,Mean OD,[14],1.84 OD
same,Mean OD,[15],2.04 OD
same,Mean OD,[16],1.86 OD
same,Mean OD,[17],0.124 OD
same,Mean OD,[18],0.141 OD
same,Mean OD,[19],2.37 OD
same,Mean OD,[20],0.145 OD
same,Mean OD,[21],0.114 OD
same,Mean OD,[22],1.31 OD
same,Mean OD,[23],2.27 OD
same,Mean OD,[24],1.44 OD
same,Mean OD,[25],0.558 OD
same,Mean OD,[26],0.773 OD

# — US20140178854A1
